Results from patent US12383631B2, “Immune antigen specific IL-18 immunocytokines and uses thereof” (Bright Peak Therapeutics AG, priority 2022, dated 2025).

Assays:
[1] = biological target: T1, human IL-18 binding protein isoform a (IL-18BPa) (Homo sapiens, UniProt O95998); test: Cellular IL-18 Binding protein resistance assay in NK-92 cells (Example 13); assay type: cell-based; conditions: NK92 cells, IL-18 analyte 1 nM final, IL-18BPa titrated, 1 ng/ml IL-12; read-out: IC50 IL-18BP-mediated inhibition of IFNγ secretion
T1 sequence (O95998 31-194): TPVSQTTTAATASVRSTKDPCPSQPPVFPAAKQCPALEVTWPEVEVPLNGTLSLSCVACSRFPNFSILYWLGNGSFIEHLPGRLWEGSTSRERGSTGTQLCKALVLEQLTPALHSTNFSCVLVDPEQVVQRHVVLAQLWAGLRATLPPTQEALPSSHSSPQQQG
Experimental: The NK cell line NK-92 derived from a patient with lymphoma (ATCC, Cat #CRL-2407) was cultured in aMEM medium supplemented with 20% FCS-Glutamax, 25 μM B-mercaptoEthanol, and 100 IU/ml of recombinant Human Interleukin-2 (TL-2). On the day of experiment, cells were harvested and washed with aMEM medium without IL-2. After counting, cells were seeded at 100 000 cells/well in a 384 well titer plate and incubated at 37° C./5% CO2. Sixteen 2-fold serial dilutions of Fc fused human IL-18 binding protein isoform a (IL-18BPa; R&D systems, Cat #119-BP) were prepared in aMEM medium-1 ng/ml IL-12 containing 2 nM of each IL-18 variants and were added to the NK-92 cells. Final IL-18 analytes concentration was 1 nM and final IL-18BPa concentrations ranged from to 566 nM down to 17 pM.
After 16-20 h incubation at 37° C./5% CO2, 5 μl of supernatant were carefully transferred to a 384 microwells OPTIplate (Perkin Elmer; Cat #6007270) and Interferon-gamma (IFNγ) levels measured using the Human IFNγ AlphaLISA Assay Kit (Perkin Elmer, Cat #AL217C). Briefly, 10 μl of 2.5× AlphaLISA Anti-IFNγ acceptor beads and biotinylated Antibody Anti-IFNγ mix were added to the 5 μl of NK-92 supernatants and incubated for 1 h at room temperature under shaking. Under subdued light, 2.5 μl of 2× streptavidin (SA) donor beads were pipetted in each well and incubated for 30 min at room temperature under shaking. AlphaLisa signal was then measured on an Enspire plate reader (Perkin Elmer) using 680 and 615 nm as excitation and emission wavelengths respectively. Half maximal inhibitory concentration (IC50) was calculated based on a variable slope, four parameter analysis using GraphPad PRISM software.

[2] = system: PD-1 positive (transduced) KG-1 cells; test: IFN gamma secretion assay in PD-1 transduced KG-1 cells (Example 11); assay type: cell-based, human; conditions: ratio of EC50 in PD-1 positive and parental KG-1 cells
Experimental: The KG-1 cell line was used to generate a PD-1 expressing cell line and furthermore, to measure IFNγ release upon incubation with TL-18 variants and corresponding TL-18 immunocytokines.
PD-1 expressing cell line generation: Briefly, KG-1 cells were transduced using lentiviral particles carrying the human PD-1 gene (PDCD1 NM_005018; Origene, CAT #: RC210364L3V) at a MOI (Multiplicity of Infection) of 30. Spinfection was performed at 1260 g during 90 min at 37° C. in the presence of 5 μg/ml of Polybrene and 10 mM of HEPES in complete culture media (RPMI, 10% FBS, 1% L-Glutamine). Five days after transduction, puromycin at a final concentration of 1 μg/ml was added to select for PD-1 positive cells. For culture maintenance, puromycin concentration was decreased to 0.5 μg/ml. Stable and homogenous expression of PD-1 was verified by surface staining (BD Pharmingen, #557860).
IFNγ release was assessed in PD-1 positive (transduced) KG-1 cells, as well as in the parental PD-1 negative cells. 0.5×10^5 cells were seeded into a 96-well U-bottom plate in culture media (RPMI, 10% FBS, […]) and stimulated with IL-18 variants/ICs for 20-24 h. The test items were diluted to 100 nM in culture medium, followed by 7 10-fold serial dilutions. The lowest concentration assessed was […]. After incubation, IFNγ release was measured using the LEGENDplex custom human mix and match KIT (Biolegend LEGENDplex™ Human IFN-γ Capture Bead B5, 13×#740942, LEGENDplex™ P 1 Essential Immune Response Panel Detection Abs, #740931, LEGENDplex™ Buffer Set A #740368). To this end, cell culture supernatant was collected and diluted 1:1 with Assay Buffer. Fluorescence measurements were done with a Quanteon Flow Cytometer from Acea Biosciences. For analysis, MFI values (median fluorescence intensity) were exported and plotted against concentrations used. The EC50 values (half maximal effective concentration) were calculated based on a variable slope and four parameter analysis using GraphPad PRISM software version 9.

IC50 [1] [nM] | Substance | PD-1^pos/PD-1^neg EC50 ratio [2]
0.781 | SEQ ID NO: 1: native IL-18 wild-type sequence [reference compound] | 1.298
0.282 | SEQ ID NO: 31: IL-18 polypeptide: C38A, C76A, C127A | 1.2
